The target of this experiment is T1, recombinant Tie2 extracellular domain-Fc fusion (UniProt Q02763 23-748, limits assumed).
T1 construct: extracellular domain; also called Tie2-Fc; Tie2 receptor-Fc fusion; not shown: Fc part
Description: BIAcore SPR, purified mAb captured on rabbit anti-mouse IgG Fc, Tie2-Fc injected. The method, then: The affinity of the purified mAbs was measured in the BIAcore. Using a flow rate of 10 μl/min, the mAb (diluted in HBS buffer) was injected over a rabbit anti-mouse IgG Fc surface, followed by buffer flow and the RU recorded. Tie2-Fc diluted in HBS buffer was then injected for 120 s followed by buffer flow for 240 s and regeneration of the sensor chip surface with an injection of 15 μl 0.1 M phosphoric acid. BIAcore software was used for association and dissociation-phase analysis. The murine monoclonal antibodies bound to soluble monomeric Tie2 receptor. The on-rates ($kass$) and off-rates ($kdiss$) were calculated.

T1 sequence (Q02763 23-748 limits assumed): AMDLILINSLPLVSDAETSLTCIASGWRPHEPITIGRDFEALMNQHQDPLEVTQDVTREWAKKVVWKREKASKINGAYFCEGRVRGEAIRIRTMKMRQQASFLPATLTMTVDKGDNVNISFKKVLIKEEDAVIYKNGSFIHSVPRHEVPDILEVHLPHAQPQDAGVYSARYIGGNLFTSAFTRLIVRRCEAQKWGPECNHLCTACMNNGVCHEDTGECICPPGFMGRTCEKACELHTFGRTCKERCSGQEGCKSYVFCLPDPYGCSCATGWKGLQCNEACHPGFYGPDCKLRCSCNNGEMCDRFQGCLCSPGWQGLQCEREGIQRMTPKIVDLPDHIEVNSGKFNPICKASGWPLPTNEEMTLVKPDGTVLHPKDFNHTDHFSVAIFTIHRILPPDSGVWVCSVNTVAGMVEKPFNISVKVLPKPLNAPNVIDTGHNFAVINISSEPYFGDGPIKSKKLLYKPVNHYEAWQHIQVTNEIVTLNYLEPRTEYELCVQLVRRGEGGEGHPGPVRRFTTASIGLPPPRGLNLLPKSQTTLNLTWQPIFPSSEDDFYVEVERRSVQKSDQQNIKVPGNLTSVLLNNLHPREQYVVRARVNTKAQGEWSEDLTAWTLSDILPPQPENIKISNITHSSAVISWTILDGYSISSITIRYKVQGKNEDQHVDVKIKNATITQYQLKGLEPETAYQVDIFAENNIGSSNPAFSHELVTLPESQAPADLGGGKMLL

B1: monoclonal antibody 12H8 (antibody, V domains shown)
VH: EVQLVESGGGLVKPGGSLKLSCAASGFTFSDYGMHWVRQAPEKGLEWVAYINSGSSTITYADTVKGRFTISRDNAKNTLFLQMTSLRSEDTAIYYCARGYYGPYYFDYWGQGTALTVSS
VL: DIVMTQSHKFMSTSVGDRVSFTCKASQNVGTAVAWYQQKPGQSPKLLIYWASSRHTGVPDRFTGSGSGTDFTLTITNVQSEDLADYFCQEYSSYPLTFGVGTKLELK
notes: also called mAb 12H8
In the case of B1, the Kd (in general, the equilibrium constant for the complex coming apart) is less than 0.1 nM.

(Values after patent US6376653 (GlaxoSmithKline, dated 2002).)
